B1: His6-VASP-AAA (natural protein)
chain: MSETVICSSRATVMLYDDGNKRWLPAGTGPQAFSRVQIYHNPTANSFRVVGRKMQPDQQVVINCAIVRGVKYNQATPNFHQWRDARQVWGLNFGSKEDAAQFAAGMASALEALEGGGPPPPPALPTWSVPNGPSPEEVEQQKRQQPGPSEHIERRVANAGGPPAPPAGGPPPPPGPPPPPGPPPPPGLPPSGVPAAAHGAGGGPPPAPPLPAAQGPGGGGAGAPGLAAAIAGAKLRKVAKQEEASGGPTAPKAESGRSGGGGLMEEMNAMLARRRKAAQVGEKTPKDESANQEEPEARVPAQSESVRRPWEKNSTTLPRMKSSSSVTTSETQPCTPSSSDYSDLQRVKQELLEEVKKELQKVKEEIIEAFVQELRKRGSP
B2: His6-VASP-AAE, purified recombinant (natural protein)
chain: MSETVICSSRATVMLYDDGNKRWLPAGTGPQAFSRVQIYHNPTANSFRVVGRKMQPDQQVVINCAIVRGVKYNQATPNFHQWRDARQVWGLNFGSKEDAAQFAAGMASALEALEGGGPPPPPALPTWSVPNGPSPEEVEQQKRQQPGPSEHIERRVANAGGPPAPPAGGPPPPPGPPPPPGPPPPPGLPPSGVPAAAHGAGGGPPPAPPLPAAQGPGGGGAGAPGLAAAIAGAKLRKVAKQEEASGGPTAPKAESGRSGGGGLMEEMNAMLARRRKAEQVGEKTPKDESANQEEPEARVPAQSESVRRPWEKNSTTLPRMKSSSSVTTSETQPCTPSSSDYSDLQRVKQELLEEVKKELQKVKEEIIEAFVQELRKRGSP
B3: His6-VASP-ADA, purified recombinant (natural protein)
chain: MSETVICSSRATVMLYDDGNKRWLPAGTGPQAFSRVQIYHNPTANSFRVVGRKMQPDQQVVINCAIVRGVKYNQATPNFHQWRDARQVWGLNFGSKEDAAQFAAGMASALEALEGGGPPPPPALPTWSVPNGPSPEEVEQQKRQQPGPSEHIERRVANAGGPPAPPAGGPPPPPGPPPPPGPPPPPGLPPSGVPAAAHGAGGGPPPAPPLPAAQGPGGGGAGAPGLAAAIAGAKLRKVDKQEEASGGPTAPKAESGRSGGGGLMEEMNAMLARRRKAAQVGEKTPKDESANQEEPEARVPAQSESVRRPWEKNSTTLPRMKSSSSVTTSETQPCTPSSSDYSDLQRVKQELLEEVKKELQKVKEEIIEAFVQELRKRGSP

The first experiment addresses T1, GST-SPCN_SH3 (UniProt Q13813 970-1025). Kind of experiment: pull-down.
For the molecule B1, the binding result was “binds”.

On to B2, for which the binding result is recorded as “binds”.

For B3, the binding result is given as “binds”.

The target in a further experiment is T1, GST-SPCN_SH3. Description: peptide or protein array.
With PPAGGPPPPPGPPPP [VASP peptide F2], the binding result is listed as “binds”.

Take PPAPGPPPPPGPPPP [VASP peptide F8 with P173 changed to alanine]: the binding result is reported as “binds”.

Regarding PPPPAPPPPPGPPPP [VASP peptide F8 with G175 changed to alanine], the binding result was “binds”.

With PPPPGPPPPPAPPPP [VASP peptide F8 with G181 changed to alanine], the binding result is reported as “binds”.

With APPPGPPPPPGPPPP [VASP peptide F8 with P171 changed to alanine], the binding result is recorded as “binds”.

Take PPPPGPPPPPGPAPP [VASP peptide F8 with P183 changed to alanine]: the binding result was “binds”.

With PPPAGPPPPPGPPPP [VASP peptide F8 with P174 changed to alanine], the binding result was “binds”.

PPPPGPPPPPGPPPA [VASP peptide F8 with P185 changed to alanine]: the binding result is on record as “binds”.

Consider PPPPGPPPPPGPPAP [VASP peptide F8 with P184 changed to alanine], for which the binding result is on record as “binds”.

Take PPPPGPPPPPGAPPP [VASP peptide F8 with P182 changed to alanine]: the binding result is “binds”.

As for PPPPGPPPPPGPPPP [VASP peptide F8], the binding result is recorded as “binds”.

PAPPGPPPPPGPPPP [VASP peptide F8 with P172 changed to alanine]: the binding result is “binds”.

The values are drawn from paper PMC2213610 (The Journal of Cell Biology, 2008).
